B1: Apoptosis-associated speck-like protein containing a CARD, residues 114 to 194; numbered along this chain, Q9ULZ3 (parent)
chain: FIDQHRAALIARVTNVEWLLDALYGKVLTDEQYQAVRAEPTNPSKMRKLFSFTPAWNWTCKDLLLQALRESQSYLVEDLER

Variants of: B1
Experiment: abundance fitness (aPCA) (normalised: wild type 0, dead -1); higher = more abundant; growth selection in yeast, the domain comes from the species named
Settings: Homo sapiens

Abundance fitness: each site, then its substitutions
W18: S 0.163 | T 0.053 | V 0.107 | Y 0.186
L19: A -0.319 | D -0.395 | E -0.882 | F -0.781 | G -0.827 | I -0.122 | K -0.922 | M -0.787 | N -0.704 | P -0.787 | Q -0.439 | R -0.906 | S -0.853 | T -0.912 | V -0.051 | W -0.643 | Y 0.243
L20: C 0.005 | D -0.518 | E -0.723 | F -0.621 | G -0.901 | I -0.179 | M -0.458 | N -0.797 | P -0.543 | Q -0.854 | R -0.917 | S -0.583 | V -0.388 | Y -0.626
D21: A -0.477 | C -0.466 | E -0.091 | F -0.801 | G -0.331 | H -0.162 | I -0.69 | K -0.287 | L -0.695 | M -0.292 | N -0.264 | P -0.987 | Q -0.115 | R -0.33 | T -0.313 | W -0.496 | Y -0.805
A22: C -0.127 | D -0.302 | G -0.4 | H -0.116 | I 0.126 | K 0.331 | L -0.135 | M -0.183 | N -0.08 | P -1 | Q 0.063 | R 0.094 | S -0.057 | T -0.146 | V -0.476 | W -0.183 | Y -0.004
L23: A -0.753 | C -0.444 | D -0.962 | E -0.719 | F -0.737 | G -0.911 | H -0.698 | I -0.564 | K -0.645 | M -0.392 | N -1.06 | Q -0.739 | R -0.83 | S -0.879 | T -0.943 | V -0.611 | W -0.939 | Y -0.586
Y24: A -0.254 | D -0.157 | F -0.594 | G -0.483 | H 0.067 | I -0.395 | K 0.255 | L -0.035 | M -0.501 | N -0.078 | P -0.598 | Q -0.217 | R 0.109 | S -0.319 | T -0.654 | V -0.054 | W -0.301
G25: A -0.43 | C -0.582 | D -0.255 | F -0.931 | H -0.213 | I -0.543 | K 0.025 | L -0.45 | P 0.191 | Q -0.41 | R -0.445 | S -0.701 | T -0.81 | V -0.779 | W -0.325 | Y -0.55
K26: A -0.371 | C -0.262 | D -0.483 | E -0.323 | F -0.47 | G -0.513 | H -0.422 | I -0.094 | L -0.438 | M -0.563 | N -0.314 | P -0.369 | Q -0.249 | R -0.178 | S -0.081 | T 0.014 | V -0.106 | W -0.481 | Y -0.658
V27: A -0.21 | C 0.002 | D -0.904 | E -0.731 | F -0.413 | G -0.419 | H -0.764 | I -0.392 | K -1.09 | L -0.65 | M -0.722 | Q -0.613 | R -0.909 | S -0.583 | T -0.675 | W -0.734
L28: A -0.732 | D -0.935 | E -0.817 | F -0.896 | I -0.119 | K -0.807 | M -0.767 | N -0.805 | P -0.878 | Q -0.931 | R -0.871 | S -0.812

Source: the Human Domainome abundance scans (Beltran et al. 2025)
